Measured values taken from the supplement of paper PMC9112550, “Optimization of the antimicrobial peptide Bac7 by deep mutational scanning” (BMC Biology, 2022).

Tested on: Escherichia coli TOP10
Assay: shrunken log2 fold change of peptide-encoding DNA abundance (4.5 h post-induction vs induction); higher = less antimicrobial activity (less host growth inhibition)
Details: time post-induction: 4.5 h; library: site-saturation at positions 5, 18, 19, 20
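Further: peptides expressed intracellularly from a pBAD plasmid library in pooled LB shake-flask culture, induced with 0.3% L-arabinose, DNA abundance read by NGS, three biological replicates, DESeq2 with apeglm shrinkage.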

| Sequence | shrunken log2 fold change |
| --- | --- |
| RRIRLRPPRLPRPRPRPVNIPRP | -0.163 |
| RRIRNRPPRLPRPRPRPCDMPRP | 0.0184 |
| RRIRDRPPRLPRPRPRPHLQPRP | 0.157 |
| RRIRLRPPRLPRPRPRPTNCPRP | -0.0927 |
| RRIRGRPPRLPRPRPRPCVHPRP | 0.107 |
| RRIRMRPPRLPRPRPRPIQQPRP | -0.0206 |
| RRIRPRPPRLPRPRPRPYDGPRP | -0.7 |
| RRIRGRPPRLPRPRPRPIDAPRP | 0.674 |
| RRIRDRPPRLPRPRPRPVCPPRP | -0.153 |
| RRIRCRPPRLPRPRPRPAYQPRP | -0.0687 |
| RRIRHRPPRLPRPRPRPLWQPRP | -0.145 |
| RRIRCRPPRLPRPRPRPRAIPRP | 0.0982 |
| RRIRSRPPRLPRPRPRPEEAPRP | 0.983 |
| RRIRNRPPRLPRPRPRPEYHPRP | 0.0524 |
| RRIRIRPPRLPRPRPRPGRPPRP | 0.398 |
| RRIRQRPPRLPRPRPRPQIRPRP | -0.307 |
| RRIRMRPPRLPRPRPRPFPCPRP | -0.0872 |
| RRIRPRPPRLPRPRPRPAISPRP | -0.103 |
| RRIRCRPPRLPRPRPRPWWWPRP | -0.1 |
| RRIRARPPRLPRPRPRPPASPRP | 0.77 |
| RRIRSRPPRLPRPRPRPRDMPRP | 0.446 |
| RRIRSRPPRLPRPRPRPNCSPRP | -0.0305 |
| RRIRQRPPRLPRPRPRPNPQPRP | 0.129 |
| RRIRMRPPRLPRPRPRPANIPRP | -0.0889 |
| RRIRFRPPRLPRPRPRPLKKPRP | 0.251 |

| Sequence | shrunken log2 fold change |
| --- | --- |
| RRIRVRPPRLPRPRPRPAHHPRP | -0.011 |
| RRIRPRPPRLPRPRPRPYLRPRP | 0.0823 |
| RRIRFRPPRLPRPRPRPVSFPRP | -0.414 |
| RRIRERPPRLPRPRPRPGFWPRP | 0.407 |
| RRIRFRPPRLPRPRPRPDLYPRP | -0.053 |
| RRIRHRPPRLPRPRPRPFIYPRP | -0.831 |
| RRIRLRPPRLPRPRPRPRCSPRP | 0.0191 |
| RRIRVRPPRLPRPRPRPHDQPRP | 0.134 |
| RRIRWRPPRLPRPRPRPVKYPRP | -0.632 |
| RRIRTRPPRLPRPRPRPRTSPRP | 0.098 |
| RRIRARPPRLPRPRPRPWMGPRP | 0.0382 |
| RRIRYRPPRLPRPRPRPYDPPRP | -0.325 |
| RRIRKRPPRLPRPRPRPWSSPRP | -0.136 |
| RRIRTRPPRLPRPRPRPRVYPRP | -0.454 |
| RRIRCRPPRLPRPRPRPPACPRP | 0.479 |
| RRIRVRPPRLPRPRPRPEIWPRP | 0.223 |
| RRIRCRPPRLPRPRPRPMAKPRP | -0.0415 |
| RRIRGRPPRLPRPRPRPSYQPRP | -0.0215 |
| RRIRHRPPRLPRPRPRPQVCPRP | -0.0115 |
| RRIRDRPPRLPRPRPRPNCTPRP | 0.476 |
| RRIRARPPRLPRPRPRPMGNPRP | -0.101 |
| RRIRARPPRLPRPRPRPERHPRP | 0.58 |
| RRIRFRPPRLPRPRPRPDPIPRP | 0.159 |
| RRIRQRPPRLPRPRPRPGNNPRP | -0.54 |
| RRIRRRPPRLPRPRPRPNKNPRP | 0.153 |

| Sequence | shrunken log2 fold change |
| --- | --- |
| RRIRQRPPRLPRPRPRPHWFPRP | 0.0358 |
| RRIRFRPPRLPRPRPRPCLIPRP | -0.448 |
| RRIRPRPPRLPRPRPRPAHSPRP | -0.00917 |
| RRIRTRPPRLPRPRPRPRCHPRP | -0.334 |
| RRIRRRPPRLPRPRPRPELEPRP | 1.16 |
| RRIRGRPPRLPRPRPRPELPPRP | 1.33 |
| RRIRRRPPRLPRPRPRPSSFPRP | -0.0626 |
| RRIRMRPPRLPRPRPRPLNWPRP | 0.225 |
| RRIRQRPPRLPRPRPRPGKNPRP | -0.294 |
| RRIRGRPPRLPRPRPRPQASPRP | 1.03 |
| RRIRHRPPRLPRPRPRPKEKPRP | 0.0444 |
| RRIRYRPPRLPRPRPRPQVPPRP | -0.124 |
| RRIRLRPPRLPRPRPRPKYYPRP | -1.1 |
| RRIRARPPRLPRPRPRPLAPPRP | 0.619 |
| RRIRPRPPRLPRPRPRPEQMPRP | 0.0974 |
| RRIRFRPPRLPRPRPRPVHSPRP | -0.126 |
| RRIRARPPRLPRPRPRPDEVPRP | 0.446 |
| RRIRIRPPRLPRPRPRPIQQPRP | -0.0134 |
| RRIRPRPPRLPRPRPRPKSQPRP | -0.193 |
| RRIRWRPPRLPRPRPRPSIFPRP | -0.396 |
| RRIRVRPPRLPRPRPRPKPCPRP | 0.205 |
| RRIRQRPPRLPRPRPRPPMNPRP | -0.299 |
| RRIRTRPPRLPRPRPRPNPNPRP | -0.306 |
| RRIRIRPPRLPRPRPRPSDKPRP | -0.79 |
| RRIRKRPPRLPRPRPRPVCCPRP | 0.517 |

| Sequence | shrunken log2 fold change |
| --- | --- |
| RRIRGRPPRLPRPRPRPNPMPRP | 0.17 |
| RRIRFRPPRLPRPRPRPMGMPRP | -0.0492 |
| RRIRGRPPRLPRPRPRPFQHPRP | -0.0674 |
| RRIRFRPPRLPRPRPRPKETPRP | -0.0433 |
| RRIRCRPPRLPRPRPRPKATPRP | 0.0985 |
| RRIRWRPPRLPRPRPRPCGCPRP | -0.0615 |
| RRIRLRPPRLPRPRPRPDSCPRP | -0.851 |
| RRIRIRPPRLPRPRPRPEETPRP | -0.00208 |
| RRIRLRPPRLPRPRPRPVIIPRP | -0.242 |
| RRIRCRPPRLPRPRPRPVPQPRP | 0.0921 |
| RRIRHRPPRLPRPRPRPQNCPRP | 0.0145 |
| RRIRCRPPRLPRPRPRPYSHPRP | -0.595 |
| RRIRVRPPRLPRPRPRPTDLPRP | -0.101 |
| RRIRWRPPRLPRPRPRPNHMPRP | -0.227 |
| RRIRWRPPRLPRPRPRPHEMPRP | 0.433 |
| RRIRDRPPRLPRPRPRPTSNPRP | 0.24 |
| RRIRSRPPRLPRPRPRPMGPPRP | -0.0846 |
| RRIRDRPPRLPRPRPRPNPIPRP | -0.132 |
| RRIRVRPPRLPRPRPRPWEMPRP | -0.00133 |
| RRIRGRPPRLPRPRPRPGDPPRP | 0.779 |
| RRIRQRPPRLPRPRPRPGRFPRP | 0.363 |
| RRIRIRPPRLPRPRPRPNITPRP | -0.726 |
| RRIRERPPRLPRPRPRPPEPPRP | 0.333 |
| RRIRLRPPRLPRPRPRPATPPRP | 1.05 |
| RRIRDRPPRLPRPRPRPARRPRP | 0.59 |

| Sequence | shrunken log2 fold change |
| --- | --- |
| RRIRRRPPRLPRPRPRPKNPPRP | 0.124 |
| RRIRCRPPRLPRPRPRPIYEPRP | -0.576 |
| RRIRWRPPRLPRPRPRPRKMPRP | 0.382 |
| RRIRWRPPRLPRPRPRPSDYPRP | 0.0192 |
| RRIRERPPRLPRPRPRPEDQPRP | -0.0394 |
| RRIRARPPRLPRPRPRPTRIPRP | 2.82 |
| RRIRGRPPRLPRPRPRPPVTPRP | 0.728 |
| RRIRKRPPRLPRPRPRPSRCPRP | 0.392 |
| RRIRHRPPRLPRPRPRPSFNPRP | -0.583 |
| RRIRERPPRLPRPRPRPGTGPRP | 0.229 |
| RRIRLRPPRLPRPRPRPHSFPRP | 0.0434 |
| RRIRNRPPRLPRPRPRPCRYPRP | -0.148 |
| RRIRQRPPRLPRPRPRPQMQPRP | 0.131 |
| RRIRMRPPRLPRPRPRPPKSPRP | 0.478 |
| RRIRNRPPRLPRPRPRPWGSPRP | -0.275 |
| RRIRMRPPRLPRPRPRPFCEPRP | 0.148 |
| RRIRCRPPRLPRPRPRPHFHPRP | -0.712 |
| RRIRIRPPRLPRPRPRPENMPRP | -0.396 |
| RRIRKRPPRLPRPRPRPKIPPRP | 0.174 |
| RRIRWRPPRLPRPRPRPLVLPRP | 0.0697 |
| RRIRTRPPRLPRPRPRPYVVPRP | -0.738 |
| RRIRGRPPRLPRPRPRPMAMPRP | 0.138 |
| RRIRERPPRLPRPRPRPIDPPRP | 0.0954 |
| RRIRDRPPRLPRPRPRPQKDPRP | -0.294 |
| RRIRKRPPRLPRPRPRPWTFPRP | 0.489 |
